For assay [1], the target named is T1, human Proprotein Convertase Subtilisin-like/Kexin type 9 (UniProt Q8NBP7 31-692). Nature of the assay: PCSK9-LDLR blocking ELISA. Background: ELISA stands for enzyme-linked immunosorbent assay.
The target of assay [2] is T1, human Proprotein Convertase …. Nature of the assay: ELISA.
Target sequence in this assay (Q8NBP7 31-692): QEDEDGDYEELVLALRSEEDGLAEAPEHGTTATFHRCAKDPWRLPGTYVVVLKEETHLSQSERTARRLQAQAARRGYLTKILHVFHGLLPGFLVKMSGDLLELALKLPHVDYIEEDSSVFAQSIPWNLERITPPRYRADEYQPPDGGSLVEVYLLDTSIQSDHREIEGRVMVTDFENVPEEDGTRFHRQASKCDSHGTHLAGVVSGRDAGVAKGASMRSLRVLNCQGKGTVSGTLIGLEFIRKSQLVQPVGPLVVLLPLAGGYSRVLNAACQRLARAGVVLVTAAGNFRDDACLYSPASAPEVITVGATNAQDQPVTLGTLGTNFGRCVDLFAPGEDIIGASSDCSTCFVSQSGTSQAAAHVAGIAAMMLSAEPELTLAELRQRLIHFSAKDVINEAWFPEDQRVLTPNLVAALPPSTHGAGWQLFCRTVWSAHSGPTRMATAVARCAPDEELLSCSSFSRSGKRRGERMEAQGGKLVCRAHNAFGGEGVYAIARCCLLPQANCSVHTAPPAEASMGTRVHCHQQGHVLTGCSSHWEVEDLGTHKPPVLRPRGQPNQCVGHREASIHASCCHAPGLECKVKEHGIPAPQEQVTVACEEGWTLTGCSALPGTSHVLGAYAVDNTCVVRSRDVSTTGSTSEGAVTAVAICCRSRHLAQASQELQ
Assay [3] has the same target. Nature of the assay: ELISA. The source holds these as a separate data set.
The target is the same in assay [4]. Nature of the assay: ELISA. This is another data set of the same source.
The target of assay [5] is T2, cynomolgus monkey PCSK9 (cynomolgus monkey, UniProt A0A7N9D9N8 150-747).
T2 chain: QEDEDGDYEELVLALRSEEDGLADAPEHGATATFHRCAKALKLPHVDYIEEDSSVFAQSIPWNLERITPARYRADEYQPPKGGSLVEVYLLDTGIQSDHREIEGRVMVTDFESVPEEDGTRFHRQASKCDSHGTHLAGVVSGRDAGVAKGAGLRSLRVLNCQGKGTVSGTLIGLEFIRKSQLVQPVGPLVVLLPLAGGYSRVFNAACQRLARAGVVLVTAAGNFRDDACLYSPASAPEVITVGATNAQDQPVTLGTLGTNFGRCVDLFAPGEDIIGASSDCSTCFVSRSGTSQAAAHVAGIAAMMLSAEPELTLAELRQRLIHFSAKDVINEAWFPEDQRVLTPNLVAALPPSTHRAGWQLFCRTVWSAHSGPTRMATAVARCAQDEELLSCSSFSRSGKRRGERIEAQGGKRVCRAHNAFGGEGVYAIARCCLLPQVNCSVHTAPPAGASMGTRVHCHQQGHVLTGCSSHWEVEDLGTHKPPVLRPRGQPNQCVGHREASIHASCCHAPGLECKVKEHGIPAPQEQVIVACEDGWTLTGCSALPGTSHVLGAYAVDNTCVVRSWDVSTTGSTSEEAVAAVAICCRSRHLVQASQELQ
Nature of the assay: ELISA.

The target in assay [6] is T1, human Proprotein Convertase …. Nature of the assay: PCSK9-LDLR blocking ELISA. The source holds these as a separate data set.

This passage reports IC50 and EC50 results from patent US20160194408A1 (published 2016).

Residue numbers refer to the chain shown, from its start. Read-outs that look alike come from different tables or passages of the source.

B1: Ab9 (antibody, V domains shown)
VH: QSVEESGGRLVTPGTPLTLTCTVSGIDLSSYAMGWVRQAPGKGLEYIGIIVSYGPTYYASWAKGRFTISKTSTTVDLKITSPTAEDTATYFCARDLDANSSGYYGCFNIWGQGTLVTVSS
VL: AVVLTQTPASVSAAVGGTVTIKCQASQSISTALAWYQQKPGQPPKLLIYAASPLASGVSSRFKSSGSGTEFTLTISDLECADAATYYCQSYYGSSNIAFGGGTELEILR
The IC50 is the concentration needed to halve the response being measured. Regarding B1, half-maximal inhibition in assay [1] (IC50) was put at 1.59 nM.

B2: Ab3 (antibody, V domains shown)
VH: QSVEESGGRLVTPGGSLTLTCTASGFSLSSYYMSWVRQAPGKGLEWIGIIYPSGSTYYASWAKGRFTISKTSTTVDLKITSPTVEDTATYFCARGGAYATLNLWGPGTLVTVSS
VL: AVLTQTPSPVSAAVGGTVTISCQSSQSVYHNNLLSWYQQKPGQPPKLLIYDASKLTSGVSSRFSGSGSGTQFTLTISGVQCDDAATYYCLGGYDDDADNGFGGGTEVVVKR
As a reminder, the EC50 is the midpoint of the concentration-response curve. B2: in assay [2], the EC50 was found to be 0.105 nM.

B3: Ab2 (antibody, V domains shown)
VH: QSVEESGGRLVTPGTPLTLTCTVSGFSLSSYAMSWVRQAPGKGLEWIGIIDAIDNTYYASWAKGRFTISKTSTTVDLKMTSLTTGDTATYFCARASILGYSIATGFNIWGPGTLVTVSS
VL: AYDMTQTPASVEVAVGGTVTIKCQASQSISSHLAWYQQKSGQPPKLLIYRASTLESGVSSRFKGSGSGTEFTLTISDLECADAATYYCQQGYGVSDVDNGFGGGTEVVVKR
With B3, the midpoint of the response in assay [2], the EC50, lay at 0.0936 nM.

B4: Ab1 (antibody, V domains shown)
VH: QSVEESGGRLVTPGTPLTLTCTVSGFSLSSYWMTWVRQAPGKGLEYIGIISSSGSTYYATWAKGRFTISKTSSTTVDLEITSPTTEDTATYFCARDSAFSSGLEFNIWGPGTLVTVSS
VL: AYDLTQTPASVEVAVGGTVTIKCQASQSVYSNWLSWYQQKPGQPPKLLIYDASDLASGVPSRFKGSGSGTQFTLTISGVQCDDAATYYCQQGQSSSDIDNTFGGGTEVVVKR
Molecule B4 gave a 50% effective concentration (EC50) in assay [2] of 0.117 nM.

B5: Ab4 (antibody, V domains shown)
VH: QSVEESGGRLVTPGTPLTLTCTVSGIDLSSYAMIWVRQAPEKGLEYIGYIGGIDSTYYASWAKGRFTISKTSTTVDLKMTSPTTEDTATYFCGRWSGTSGYNTIWGPGTLVTVSS
VL: DVVMTQTPASVEAAVGGTVTIKCQASQSIYSNLAWYQQKPGQPPKLLIYGASNLASGVSSRFKGSRSGTEYTLTISDLECADAATYYCQCTGGGDSGNTFGGGTEVVVKR
In assay [2], B5 registered an EC50 of 0.0843 nM.

B6: Ab19 (antibody, V domains shown)
VH: EVQLVESGGGLVQPGGSLRLSCAASGIDLSSYAMGWVRQAPGKGLEYIGIIVSYGPTYYASWAKGRFTISRDNSKNTVYLQMNSLRAEDTATYFCARDLDAQSSGYYGAFNIWGQGTLVTVSS
VL: DIQMTQSPSTLSASVGDRVTITCQASQSISTALAWYQQKPGKAPKLLIYAASPLASGVPSRFSGSGSGTEFTLTISSLQPDDFATYYCQSYYGSSNIAFGGGTKVEIKR
Take B6: in assay [3], the midpoint of the response, the EC50, lay at 0.943 nM.

B7: Ab17 (antibody, V domains shown)
VH: QEQLEESGGDLVKPEGSLTLTCTASGFSFSSSYWICWVRQAPGKGLEWIGCIRPGSADYYASWAKGRFTISRASSSTVTLQMTSLTAADTATYFCASDINDGWLGQFNLWGPGTLVTVSS
VL: DVVMTQTPASVEAAVGGTVTIKCQASLSIADYLAWYLQKPGQPPKLLIYRASTLASGVPSRFKGSGSGTEYTLTISDLECADAATYYCQSYYSVTTNTYGNTFGGGTEVVVKR
As to B7, the EC50 in assay [4] is 0.301 nM; in assay [5], 0.278 nM.

B8: Ab16 (antibody, V domains shown)
VH: QEQLVESGGGLVQPEGSLTLTCTASGFSFSSDYWICWVRQAPGKGLEWIGCIRDGGGSYYANWAKGRLTISMTSSTTVGLKMTSLTAADTATYFCASDINDGWLGQFNLWGPGTLVTVSS
VL: B7 VL with V2I, L27Q, A30S, D31S, L37Q, K63S, Y71F, N97V
As for B8, the concentration giving a half-maximal response (EC50) was 0.286 nM in assay [4] and 0.31 nM in assay [5].

B9: Ab22 (antibody, V domains shown)
VH: EVQLVESGGGLVQPGGSLRLSCAASGFSLSSYAMNWVRQAPGKGLEWIGAIRSSGATFFASSVNGRFTISRDNSKNTVYLQMNSLRAEDTAVYYCARDTNDGWYINRLDLWGQGTLVTVSS
VL: AVLTQSPSTLSASVGDRVTITCQSSKSVYSNYLSWFQQKPGKAPKFLIYKASTLASGVPSRFSGSGSGTEFTLTISSLQPDDFATYYCAGGDTNIADNAFGGGTKVEIKR
On to B9, for which, in assay [6], the IC50 worked out at 3.3 nM.
